This is an account of results in PMC5752674, “Redox regulation of PEP activity during seedling establishment in Arabidopsis thaliana” (Nature Communications, 2018).

Series [1] concerns the target PRIN2 in isolated chloroplasts of a 35S:PRIN2 line (Arabidopsis thaliana) (UniProt Q9XIK0). Description: non-reducing SDS-PAGE with immunoblot; protein extracts of isolated chloroplasts (35S:PRIN2 line; WT plants kept in light or 48 h in the dark) or of Arabidopsis cell culture (dark, light, light with 10 mM H2O2, DCMU, MV, high light), nonreducing conditions, anti-PRIN2 polyclonal antibody.

The target in series [2] is PRIN2 Cys115Ser (C2S) in transgenic prin2-2 + C2S lines (Arabidopsis thaliana) (UniProt Q9XIK0). Description: SDS-PAGE with immunoblot; protein of transgenic prin2-2 lines with PRIN2 variants (Supplementary Figs. 4c and 5); conditions not shown.
For series [3], the target named is T1, PRIN2 (PLASTID REDOX INSENSITIVE2), recombinant without transit peptide (Arabidopsis thaliana) (UniProt Q9XIK0).
T1 sequence: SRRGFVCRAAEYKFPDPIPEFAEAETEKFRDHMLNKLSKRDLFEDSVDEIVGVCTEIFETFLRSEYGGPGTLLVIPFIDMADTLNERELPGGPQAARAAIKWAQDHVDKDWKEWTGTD
Description: competition EMSA. The note with it: EMSA with 3 ug PRIN2 per reaction; buffer, salt, pH and temperature not given in the material.

Series [4] has as its target recombinant Arabidopsis PRIN2 WT (PLASTID REDOX …2), without the transit peptide (Arabidopsis thaliana) (UniProt Q9XIK0). Description: non-reducing SDS-PAGE; purified recombinant protein (1 ug), untreated (air), with 5 mM DTT or other DTT concentrations, or with 2 mM H2O2; 15% polyacrylamide, nonreducing conditions, Coomassie Brilliant Blue; disulfide-linked dimer to monomers.

Series [5] addresses endogenous PRIN2 of Arabidopsis (Arabidopsis thaliana (endogenous in Col-0 plants and cell culture)) (UniProt Q9XIK0). Description: non-reducing SDS-PAGE with immunoblot; protein extracts of isolated chloroplasts (35S:PRIN2 line; WT plants kept in light or 48 h in the dark) or of Arabidopsis cell culture (dark, light, light with 10 mM H2O2, DCMU, MV, high light), nonreducing conditions, anti-PRIN2 polyclonal antibody.

Series [6] deals with T2, PRIN2 (PLASTID REDOX …2), recombinant without transit peptide (Arabidopsis thaliana, UniProt Q9XIK0 62-179).
T2 sequence: T1 sequence
Description: competition EMSA; 50-fold excess over labeled ycf1; EMSA with 3 ug PRIN2 per reaction; buffer, salt, pH and temperature not given in the material. The note with it: protein: recombinant, tags: His (pET-His1a), label: none, blunt. For orientation: A gel shift assay detects complexes by their altered migration in electrophoresis.

Series [7] deals with T2, PRIN2 (PLASTID REDOX …2), recombinant …. Description: EMSA; 3 ug protein; competed by 50-fold unlabeled ycf1; EMSA with 3 ug PRIN2 per reaction; buffer, salt, pH and temperature not given in the material. To be noted: tags: His (pET-His1a), label: biotin 3' end (Biotin-14-dCTP), blunt.
Series [8] deals with the molecule itself. Description: SDS-PAGE with immunoblot; input protein extracts of protoplasts transformed with PRIN2-cMyc or TRXz-HA, probed with anti-cMyc or anti-HA; whether reducing or not is not stated. (In general: A western blot detects proteins with antibodies after separation by electrophoresis.)

On to “PRIN2 in isolated chloroplasts of a 35S:PRIN2 line (from UniProt Q9XIK0 70-179) (natural protein)”, for which the stoichiometry N (in general, a count of units in the complex or per binding partner) in series [1] came to 2.
On to “PRIN2 Cys115Ser (C2S) in transgenic prin2-2 + C2S lines (from UniProt Q9XIK0 70-179) (natural protein)”, for which the stoichiometry N in series [2] came out at 2.
For “GAAACAGTATAACATGACTTATATAGCCATGTCAACCAATGTAAAATGGATAAGATCCTTTTAGTTTAGATTCATAAAAAATTTTTTGTAATCGATGAAATAAATTAGAAGCGAATCCACATACATAGAAATAGAATTGCTCTAGGAATATTTTTTCCAAATCATATGAATACGATTGAATACGATCCGTAGTGGGT (double strand) [psbA promoter competitor (psbA_197)]”, the binding entry in series [3] is “binds”.
As to “recombinant Arabidopsis PRIN2 WT (PLASTID REDOX …2), without the transit peptide (from UniProt Q9XIK0 70-179) (natural protein)”, the stoichiometry N in series [4] was determined as 2.
“endogenous PRIN2 of Arabidopsis (from UniProt Q9XIK0 70-179) (natural protein)”: in series [5], the stoichiometry N was found to be 2.

B1: psaA U region competitor (dsDNA)
DNA 1: TTTTTTAATTATAAAAAAGGGTCCGTTGAGCACCCTATCCAT
DNA 2: ATCCATAGGGTGCTCAACGGACCCTTTTTTATAATTAAAAAA
As for B1, the binding result in series [6] (as printed, strands mismatch near the 3' end of strand 1 (possible misprint)) is “binds”.

B2: clpP promoter competitor (dsDNA)
DNA 1: CGAAACCCCAATTTTACGTTTCCACATCAAAGTGAAATAGAGAA
DNA 2: TTCTCTATTTCACTTTGATGTGGAAACGTAAAATTGGGGTTTCG
For B2, the binding result in series [6] is “binds”.

B3: ycf1 promoter probe (dsDNA)
DNA 1: CCATTCATTTAATATCCCTTTGGTGTCATTGACATAAGAGAT
DNA 2: ATCTCTTATGTCAATGACACCAAAGGGATATTAAATGAATGG
For B3, the binding result in series [7] is “binds”.

B4: rpoB promoter competitor (dsDNA)
DNA 1: TATGGTATGCAATCGAATTGGAATATGTAATATCATAGGTGAAAATGAAATTAC
DNA 2: GTAATTTCATTTTCACCTATGATATTACATATTCCAATTCGATTGCATACCATA
Consider B4, for which the binding result in series [6] is “binds”.

B5: TRXz-HA (full-length Thioredoxin z fused to an HA tag) (natural protein, Arabidopsis thaliana, UniProt Q9M7X9 82-183, looked up)
chain: AQELQELVKGDRKVPLIVDFYATWCGPCILMAQELEMLAVEYESNAIIVKVDTDDEYEFARDMQVRGLPTLFFISPDPSKDAIRTEGLIPLQMMHDIIDNEM
notes: also called pRT104-TRXz-HA; source: Arabidopsis Ler suspension culture protoplasts, transiently transformed, in protein extract
Take B5: the “stoichiometry N” value in series [8] was 2.

B6: PRIN2-cMyc (full-length PRIN2 fused to a cMyc tag) (natural protein, Arabidopsis thaliana, UniProt Q9XIK0 68-179, looked up)
chain: CRAAEYKFPDPIPEFAEAETEKFRDHMLNKLSKRDLFEDSVDEIVGVCTEIFETFLRSEYGGPGTLLVIPFIDMADTLNERELPGGPQAARAAIKWAQDHVDKDWKEWTGTD
notes: also called pRT104-PRIN2-cMyc; source: Arabidopsis Ler suspension culture protoplasts, transiently transformed, in protein extract
With B6, the “stoichiometry N” value in series [8] was 2.
